Literature values in paper PMC11759867.

Target: MD2 (Homo sapiens) (UniProt Q9Y6Y9)
Sequence of UniProt Q9Y6Y9 (Q9Y6Y9 19-160): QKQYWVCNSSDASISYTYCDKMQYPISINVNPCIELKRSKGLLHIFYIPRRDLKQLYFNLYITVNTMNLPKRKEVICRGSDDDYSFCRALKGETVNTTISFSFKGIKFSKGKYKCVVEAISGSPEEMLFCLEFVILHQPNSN

Kd: 302 nM
Substance: CIRP 106-125 (from UniProt Q14011)
